Biological target: T1, TAp63γ (UniProt Q9H3D4)
T1 sequence: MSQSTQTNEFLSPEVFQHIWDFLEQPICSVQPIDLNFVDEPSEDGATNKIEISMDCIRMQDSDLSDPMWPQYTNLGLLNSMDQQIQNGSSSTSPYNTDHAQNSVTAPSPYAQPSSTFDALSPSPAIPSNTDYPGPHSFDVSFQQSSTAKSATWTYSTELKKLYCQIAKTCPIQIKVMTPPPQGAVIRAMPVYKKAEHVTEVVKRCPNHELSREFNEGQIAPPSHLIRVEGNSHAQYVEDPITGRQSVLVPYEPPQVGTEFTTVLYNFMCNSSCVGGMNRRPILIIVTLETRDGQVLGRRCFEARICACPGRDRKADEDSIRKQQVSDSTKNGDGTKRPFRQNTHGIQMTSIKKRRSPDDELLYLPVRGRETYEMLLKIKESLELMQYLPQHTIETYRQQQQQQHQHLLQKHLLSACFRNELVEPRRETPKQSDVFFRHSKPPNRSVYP
Test: cell_activity
Conditions: Saos-2 reporter, levels approaching 80% of p53

## PG-13 β-galactosidase reporter (multiple copies of minimal p53 binding sequence)
  activity: 80 % of p53

Reference: patent US6946256
